The values that follow come from patent US20250215059A1 (REGENTS OF THE UNIVERSITY OF COLORADO A BODY CORPORATE, published 2025).

In experiment [1] the target is T1, tau aggregates in HEK293 tau biosensor cells (4R repeat domain of tau (K18) with the P301S mutation fused to … (UniProt P10636-8 244-372)).
T1 construct: domain: 4R repeat domain of tau (K18); Aggregated, insoluble form inside cells; the aggregates are seeded with brain homogenate of tau transgenic mice and may hold other proteins and RNA; Number of chains in an aggregate not defined; also called cytoplasmic tau aggregates; nuclear tau aggregates; not shown: CFP or YFP fused to the repeat domain
Put plainly: Halo (JF646) imaging in seeded HEK293 tau biosensor cells.

Experiment [2] has as its target T1, tau aggregates in HEK293 tau biosensor …. Nature of the experiment: cell-based or functional assay.

T1 sequence (P10636 561-689 P618S): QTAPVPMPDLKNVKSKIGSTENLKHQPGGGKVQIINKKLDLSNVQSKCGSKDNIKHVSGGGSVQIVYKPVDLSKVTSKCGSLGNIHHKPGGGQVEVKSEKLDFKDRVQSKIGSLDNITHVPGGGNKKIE

B1: SRRM2_5-Halo (other)
chain: MYNGIGLPTPRGSGTNGYVQRNLSLVRGRRGERPDYKGEEELRRLEAALVKRPNPDILDHERKRRVELRCLELEEMMEEQGYEEQQIQEKVATFRLMLLEKDVNPGGKEETPGQRPAVTETHQLAELNEKKNERLRAAFGISDSYVDGSSFDPQRRAREAKQPAPEPPKPYSLVRESSSSRSPTPKQKKKKKKKDRGRRSESSSPRRERKKSSKKKKHRSESESKKRKHRSPTPKSKRKSKDKKRKRSRSTTPAPKSRRAHRSTSADSASSSDTSRSRSRSAAAKTHTTALAGRSPSPASGRRGEGDAPFSEPGTTSTQRPSSPETATKQPSSPYEDKDKDKKEKSATRPSPSPERSSTGPEPPAPTPLLAERHGGSPQPLATTPLSQEPVNPPSEASPTRDRSPPKSPEKLPQSSSSESSPPSPQPTKVSRHASSSPESPKPAPAPGSHREISSSPTSKNRSHGRAKRDKSHSHTPSRRMGRSRSPATAKRGRSRSRTPTKRGHSRSRSPQWRRSRSAQRWGRSRSPQRRGRSRSPQRPGWSRSRNTQRRGRSRSARRGRSHSRSPATRGRSRSRTPARRGRSRSRTPARRRSRSRTPTRRRSRSRTPARRGRSRSRTPARRRSRTRSPVRRRSRSRSPARRSGRSRSRTPARRGRSRSRTPARRGRSRSRTPARRSGRSRSRTPARRGRSRSRTPRRGRSRSRSLVRRGRSHSRTPQRRGRSGSSSERKNKSRTSQRRSRSNSSPEMKKSRISSRRSRSLSSPRSKAKSRLSLRRSLSGSSPCPKQKSQTPPRRSRSGSSQPKMAEIGTGFPFDPHYVEVLGERMHYVDVGPRDGTPVLFLHGNPTSSYVWRNIIPHVAPTHRCIAPDLIGMGKSDKPDLGYFFDDHVRFMDAFIEALGLEEVVLVIHDWGSALGFHWAKRNPERVKGIAFMEFIRPIPTWDEWPEFARETFQAFRTTDVGRKLIIDQNVFIEGTLPMGVVRPLTEVEMDHYREPFLNPVDREPLWRFPNELPIAGEPANIVALVEEYMDWLHQSPVPKLLFWGTPGVLIPPAEAARLAKSLPNCKAVDIGPGLNLLQEDNPDLIGSEIARWLSTLEISG
modifications: JF646 Halo ligand covalently bound to the Halo tag
notes: also called truncation 5
As for B1, the binding result in experiment [1] is reported as “no binding”.

B2: 42-polyserine-TNPO3-halo (other)
chain: MEGAKPTLQLVYQAVQALYHDPDPSGKERASFWLGELQRSVHAWEISDQLLQIRQDVESCYFAAQTMKMKIQTSFYELPTDSHASLRDSLLTHIQNLKDLSPVIVTQLALAIADLALQMPSWKGCVQTLVEKYSNDVTSLPFLLEILTVLPEEVHSRSLRIGANRRTEIIEDLAFYSSTVVSLLMTCVEKAGTDEKMLMKVFRCLGSWFNLGVLDSNFMANNKLLALLFEVLQQDKTSSNLHEAASDCVCSALYAIENVETNLPLAMQLFQGVLTLETAYHMAVAREDLDKVLNYCRIFTELCETFLEKIVCTPGQGLGDLRTLELLLICAGHPQYEVVEISFNFWYRLGEHLYKTNDEVIHGIFKAYIQRLLHALARHCQLEPDHEGVPEETDDFGEFRMRVSDLVKDLIFLIGSMECFAQLYSTLKEGNPPWEVTEAVLFIMAAIAKSVDPENNPTLVEVLEGVVRLPETVHTAVRYTSIELVGEMSEVVDRNPQFLDPVLGYLMKGLCEKPLASAAAKAIHNICSVCRDHMAQHFNGLLEIARSLDSFLLSPEAAVGLLKGTALVLARLPLDKITECLSELCSVQVMALKKLLSQEPSNGISSDPTVFLDRLAVIFRHTNPIVENGQTHPCQKVIQEIWPVLSETLNKHRADNRIVERCCRCLRFAVRCVGKGSAALLQPLVTQMVNVYHVHQHSCFLYLGSILVDEYGMEEGCRQGLLDMLQALCIPTFQLLEQQNGLQNHPDTVDDLFRLATRFIQRSPVTLLRSQVVIPILQWAIASTTLDHRDANCSVMRFLRDLIHTGVANDHEEDFELRKELIGQVMNQLGQQLVSQLLHTCCFCLPPYTLPDVAEVLWEIMQVDRPTFCRWLENSLKGLPKETTVGAVTVTHKQLTDFHKQVTSAEECKQVCWALRDFTRLFRGTELGSTSPVWWNSADISSSSSSSSSSSSSSSSSSSSSSSSSSSSSSSSSSSSSSSSSSGGSGGSGGGSEIGTGFPFDPHYVEVLGERMHYVDVGPRDGTPVLFLHGNPTSSYVWRNIIPHVAPTHRCIAPDLIGMGKSDKPDLGYFFDDHVRFMDAFIEALGLEEVVLVIHDWGSALGFHWAKRNPERVKGIAFMEFIRPIPTWDEWPEFARETFQAFRTTDVGRKLIIDQNVFIEGTLPMGVVRPLTEVEMDHYREPFLNPVDREPLWRFPNELPIAGEPANIVALVEEYMDWLHQSPVPKLLFWGTPGVLIPPAEAARLAKSLPNCKAVDIGPGLNLLQEDNPDLIGSEIARWLSTLEISG
B2: in experiment [2], the “tau aggregation by flow cytometry (FRET+ cells and integrated FRET density, normalized to no insert Halo)” value is approximately 50 % decrease.

B3: SRRM2_4-Halo (other)
chain: MYNGIGLPTPRGSGTNGYVQRNLSLVRGRRGERPDYKGEEELRRLEAALVKRPNPDILDHERKRRVELRCLELEEMMEEQGYEEQQIQEKVATFRLMLLEKDVNPGGKEETPGQRPAVTETHQLAELNEKKNERLRAAFGISDSYVDGSSFDPQRRAREAKQPAPEPPKPYSLVRESSSSRSPTPKQKKKKKKKDRGRRSESSSPRRERKKSSKKKKHRSESESKKRKHRSPTPKSKRKSKDKKRKRSRSTTPAPKSRRAHRSTSADSASSSDTSRSRSRSAAAKTHTTALAGRSPSPASGRRGEGDAPFSEPGTTSTQRPSSPETATKQPSSPYEDKDKDKKEKSATRPSPSPERSSTGPEPPAPTPLLAERHGGSPQPLATTPLSQEPVNPPSEASPTRDRSPPKSPEKLPQSSSSESSPPSPQPTKVSRHASSSPESPKPAPAPGSHREISSSPTSKNRSHGRAKRDKSHSHTPSRRMGRSRSPATAKRGRSRSRTPTKRGHSRSRSPQWRRSRSAQRWGRSRSPQRRGRSRSPQRPGWSRSRNTQRRGRSRSARRGRSHSRSPATRGRSRSRTPARRGRSRSRTPARRRSRSRTPTRRRSRSRTPARRGRSRSRTPARRRSRTRSPVRRRSRSRSPARRSGRSRSRTPARRGRSRSRTPARRGRSRSRTPARRSGRSRSRTPARRGRSRSRTPRRGRSRSRSLVRRGRSHSRTPQRRGRSGSSSERKNKSRTSQRRSRSNSSPEMKKSRISSRRSRSLSSPRSKAKSRLSLRRSLSGSSPCPKQKSQTPPRRSRSGSSQPKAKSRTPPRRSRSSSSPPPKQKSKTPSRQSHSSSSPHPKVKSGTPPRQGSITSPQANEQSVTPQRRSCFESSPDPELKSRTPSRHSCSGSSPPRVKSSTPPRQSPSRSSSPQPKVKAIISPRQRSHSGSSSPSPSRVTSRTTPRRSRSVSPCSNVESRLLPRYSHSGSSSPDTKVKPETPPRQSHSGSISPYPKVKAQTPPGPSLSGSKSPCPQEKSKDSLVQSCPGSLSLCAGVKSSTPPGESYFGVSSLQLKGQSQTSPDHRSDTSSPEVRQSHSESPSLQSKSQTSPKGGRSRSSSPVTELASRSPIRQDRGEFSASPMLKSGMSPEQSRFQSDSSSYPTVDSNSLLGQSRLETAESKEKMALPPQEDATASPPRQKDKFSPFPVQDRPESSLVFKDTLRTPPRERSGAGSSPETKEQNSALPTSSQDEELMEVVEKSEEPAGQILSHLSSELKEMSTSNFESSPEVEERPAVSLTLDQSQSQASLEAVEVPSMASSWGGPHFSPEHKELSNSPLRENSFGSPLEFRNSGPLGTEMNTGFSSEVKEDLNGPFMAEIGTGFPFDPHYVEVLGERMHYVDVGPRDGTPVLFLHGNPTSSYVWRNIIPHVAPTHRCIAPDLIGMGKSDKPDLGYFFDDHVRFMDAFIEALGLEEVVLVIHDWGSALGFHWAKRNPERVKGIAFMEFIRPIPTWDEWPEFARETFQAFRTTDVGRKLIIDQNVFIEGTLPMGVVRPLTEVEMDHYREPFLNPVDREPLWRFPNELPIAGEPANIVALVEEYMDWLHQSPVPKLLFWGTPGVLIPPAEAARLAKSLPNCKAVDIGPGLNLLQEDNPDLIGSEIARWLSTLEISG
modifications: JF646 Halo ligand covalently bound to the Halo tag
notes: also called truncation 4
Turning to B3, the binding result in experiment [1] is “no binding”.

B4: SRRM2_6-Halo (other)
chain: MYNGIGLPTPRGSGTNGYVQRNLSLVRGRRGERPDYKGEEELRRLEAALVKRPNPDILDHERKRRVELRCLELEEMMEEQGYEEQQIQEKVATFRLMLLEKDVNPGGKEETPGQRPAVTETHQLAELNEKKNERLRAAFGISDSYVDGSSFDPQRRAREAKQPAPEPPKPYSLVRESSSSRSPTPKQKKKKKKKDRGRRSESSSPRRERKKSSKKKKHRSESESKKRKHRSPTPKSKRKSKDKKRKRSRSTTPAPKSRRAHRSTSADSASSSDTSRSRSRSAAAKTHTTALAGRSPSPASGRRGEGDAPFSEPGTTSTQRPSSPETATKQPSSPYEDKDKDKKEKSATRPSPSPERSSTGPEPPAPTPLLAERHGGSPQPLATTPLSQEPVNPPSEASPTRDRSPPKSPEKLPQSSSSESSPPSPQPTKVSRHASSSPESPKPAPAPGSHREISSSPTSKNRSHGRAKRDKSHSHTPSRRMGRSRSPATAKRGRSRSRTPTKRGHSRSRSPQWRRSRSAQRWGRSRSPQRRGRSRSPQRPGWSRSRNTQRRGRSRSARMAEIGTGFPFDPHYVEVLGERMHYVDVGPRDGTPVLFLHGNPTSSYVWRNIIPHVAPTHRCIAPDLIGMGKSDKPDLGYFFDDHVRFMDAFIEALGLEEVVLVIHDWGSALGFHWAKRNPERVKGIAFMEFIRPIPTWDEWPEFARETFQAFRTTDVGRKLIIDQNVFIEGTLPMGVVRPLTEVEMDHYREPFLNPVDREPLWRFPNELPIAGEPANIVALVEEYMDWLHQSPVPKLLFWGTPGVLIPPAEAARLAKSLPNCKAVDIGPGLNLLQEDNPDLIGSEIARWLSTLEISG
modifications: JF646 Halo ligand covalently bound to the Halo tag
notes: also called truncation 6
As for B4, in experiment [1], the binding result was “no binding”.

B5: SRRM2_7-Halo (other)
chain: MYNGIGLPTPRGSGTNGYVQRNLSLVRGRRGERPDYKGEEELRRLEAALVKRPNPDILDHERKRRVELRCLELEEMMEEQGYEEQQIQEKVATFRLMLLEKDVNPGGKEETPGQRPAVTETHQLAELNEKKNERLRAAFGISDSYVDGSSFDPQRRAREAKQPAPEPPKPYSLVRESSSSRSPTPKQKKKKKKKDRGRRSESSSPRRERKKSSKKKKHRSESESKKRKHRSPTPKSKRKSKDKKRKRSRSTTPAPKSRRAHRSTSADSASSSDTSRSRSRSAAAKTHTTALAGRSPSPASGRRGEGDAPFSEPGTTSTQRPSSPETATKQPSSPYEDKDKDKKEKSATRPSPSPERSSTGPEPPAPTPLLAERHGGSPQPLATTPLSQEPVNPPSEASPTRDRSPPKSPEKLPQSSSSESSPPSPQPTKVMAEIGTGFPFDPHYVEVLGERMHYVDVGPRDGTPVLFLHGNPTSSYVWRNIIPHVAPTHRCIAPDLIGMGKSDKPDLGYFFDDHVRFMDAFIEALGLEEVVLVIHDWGSALGFHWAKRNPERVKGIAFMEFIRPIPTWDEWPEFARETFQAFRTTDVGRKLIIDQNVFIEGTLPMGVVRPLTEVEMDHYREPFLNPVDREPLWRFPNELPIAGEPANIVALVEEYMDWLHQSPVPKLLFWGTPGVLIPPAEAARLAKSLPNCKAVDIGPGLNLLQEDNPDLIGSEIARWLSTLEISG
modifications: JF646 Halo ligand covalently bound to the Halo tag
notes: also called truncation 7
As to B5, the binding result in experiment [1] was “no binding”.
